The results in this text go back to paper PMC12594620, “The Role of the [2Fe‐2S] Cluster of Escherichia coli IscR in Responding to Redox‐Cycling Agents”.

Series [1] addresses T1, [2Fe-2S]-IscR (wild type, anaerobically isolated) (Escherichia coli K12, UniProt P0AGK8 1-162).
T1 sequence: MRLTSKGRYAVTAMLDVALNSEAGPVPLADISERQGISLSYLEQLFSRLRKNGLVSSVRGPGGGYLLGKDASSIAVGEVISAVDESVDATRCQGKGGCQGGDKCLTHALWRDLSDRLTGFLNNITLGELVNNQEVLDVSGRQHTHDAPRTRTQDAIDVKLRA
In words: fluorescence anisotropy; air 15 min, then returned to anaerobic chamber and assayed anaerobically; Anisotropy: 40 mM Tris-Cl pH 7.9, 30 mM KCl, 5% glycerol, anaerobic unless stated, temperature not stated for the binding step; EMSA: 40 mM Tris-Cl pH 7.9, 150. The settings on record: protein: recombinant; chain copies: 2; label: 5' Texas Red on strand 1; blunt.

Series [2] addresses T1, [2Fe-2S]-IscR (wild type, anaerobically …). In words: fluorescence anisotropy; [2Fe-2S]1+ cluster, anaerobic, no PMS; apparent Kd; Anisotropy: 40 mM Tris-Cl pH 7.9, 30 mM KCl, 5% glycerol, anaerobic unless stated, temperature not stated for the binding step; EMSA: 40 mM Tris-Cl pH 7.9, 150. The settings on record: protein: recombinant; chain copies: 2; label: 5' Texas Red on strand 1; blunt.

B1: iscRB type 1 site 30 bp (dsDNA)
DNA 1: AAATAGTTGACCATTTTACTCGGGAATGTC
DNA 2: GACATTCCCGAGTAAAATGGTCAACTATTT
Consider B1, for which the Kd in series [1] turned out to be 26 nM; in series [2] it was 22 nM.
